From patent publication US20250368745A1 (published 2025)

T1: human IL-18BP (human, UniProt O95998 31-194)
T1 construct: UniProt printed as 095998; also called hIL-18BP
T1 sequence: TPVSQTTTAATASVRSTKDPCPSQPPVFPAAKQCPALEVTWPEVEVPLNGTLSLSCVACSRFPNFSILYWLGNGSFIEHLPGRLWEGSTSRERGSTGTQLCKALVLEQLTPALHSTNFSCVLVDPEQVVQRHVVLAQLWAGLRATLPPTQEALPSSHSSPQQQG


Biological target: T1, human IL-18BP
Assay: BLI, apparent KD

| Binder | Kd |
| --- | --- |
| SA301a HC-N58S (antibody, name in Kabat numbering, V domains shown, IgG1 kappa) VH: QVQLQESGPGLVKPSQTLSLTCTVSGYSITSDYNSHWIRQPPGKGLEWIGYIHYSGSTSYNPSLKSRVTISRDTSKNQFSLKLSSVTAADTAVYYCARNYGSIYVNYFDYWGQGTLVTVSS VL: EIVLTQSPATLSLSPGERATLSCSASSSVSYMYWYQQKPGQAPRPLIYRTSNLASGIPARFSGSGSGTDFTLTISSLEPEDFAVYYCQQYHSYPTFGGGTKVEIK | 1.37 nM |
| SA301a HC-S56Y (antibody, name in Kabat numbering, V domains shown, IgG1 kappa) VH: QVQLQESGPGLVKPSQTLSLTCTVSGYSITSDYNSHWIRQPPGKGLEWIGYIHYSGYTNYNPSLKSRVTISRDTSKNQFSLKLSSVTAADTAVYYCARNYGSIYVNYFDYWGQGTLVTVSS VL: EIVLTQSPATLSLSPGERATLSCSASSSVSYMYWYQQKPGQAPRPLIYRTSNLASGIPARFSGSGSGTDFTLTISSLEPEDFAVYYCQQYHSYPTFGGGTKVEIK | 1 nM |
| SA301a HC-S56M (antibody, name in Kabat numbering, V domains shown, IgG1 kappa) VH: QVQLQESGPGLVKPSQTLSLTCTVSGYSITSDYNSHWIRQPPGKGLEWIGYIHYSGMTNYNPSLKSRVTISRDTSKNQFSLKLSSVTAADTAVYYCARNYGSIYVNYFDYWGQGTLVTVSS VL: EIVLTQSPATLSLSPGERATLSCSASSSVSYMYWYQQKPGQAPRPLIYRTSNLASGIPARFSGSGSGTDFTLTISSLEPEDFAVYYCQQYHSYPTFGGGTKVEIK | 0.46 nM |
| SA301a HC-S54F (antibody, name in Kabat numbering, V domains shown, IgG1 kappa) VH: QVQLQESGPGLVKPSQTLSLTCTVSGYSITSDYNSHWIRQPPGKGLEWIGYIHYFGSTNYNPSLKSRVTISRDTSKNQFSLKLSSVTAADTAVYYCARNYGSIYVNYFDYWGQGTLVTVSS VL: EIVLTQSPATLSLSPGERATLSCSASSSVSYMYWYQQKPGQAPRPLIYRTSNLASGIPARFSGSGSGTDFTLTISSLEPEDFAVYYCQQYHSYPTFGGGTKVEIK | 0.56 nM |
| SA301a HC-S56E (antibody, name in Kabat numbering, V domains shown, IgG1 kappa) VH: QVQLQESGPGLVKPSQTLSLTCTVSGYSITSDYNSHWIRQPPGKGLEWIGYIHYSGETNYNPSLKSRVTISRDTSKNQFSLKLSSVTAADTAVYYCARNYGSIYVNYFDYWGQGTLVTVSS VL: EIVLTQSPATLSLSPGERATLSCSASSSVSYMYWYQQKPGQAPRPLIYRTSNLASGIPARFSGSGSGTDFTLTISSLEPEDFAVYYCQQYHSYPTFGGGTKVEIK | 0.48 nM |
| SA301a HC-S56T (antibody, name in Kabat numbering, V domains shown, IgG1 kappa) VH: QVQLQESGPGLVKPSQTLSLTCTVSGYSITSDYNSHWIRQPPGKGLEWIGYIHYSGTTNYNPSLKSRVTISRDTSKNQFSLKLSSVTAADTAVYYCARNYGSIYVNYFDYWGQGTLVTVSS VL: EIVLTQSPATLSLSPGERATLSCSASSSVSYMYWYQQKPGQAPRPLIYRTSNLASGIPARFSGSGSGTDFTLTISSLEPEDFAVYYCQQYHSYPTFGGGTKVEIK | 0.45 nM |
| SA301a HC-S56R (antibody, name in Kabat numbering, V domains shown, IgG1 kappa) VH: QVQLQESGPGLVKPSQTLSLTCTVSGYSITSDYNSHWIRQPPGKGLEWIGYIHYSGRTNYNPSLKSRVTISRDTSKNQFSLKLSSVTAADTAVYYCARNYGSIYVNYFDYWGQGTLVTVSS VL: EIVLTQSPATLSLSPGERATLSCSASSSVSYMYWYQQKPGQAPRPLIYRTSNLASGIPARFSGSGSGTDFTLTISSLEPEDFAVYYCQQYHSYPTFGGGTKVEIK | 0.17 nM |
| SA301a HC-S56V (antibody, name in Kabat numbering, V domains shown, IgG1 kappa) VH: QVQLQESGPGLVKPSQTLSLTCTVSGYSITSDYNSHWIRQPPGKGLEWIGYIHYSGVTNYNPSLKSRVTISRDTSKNQFSLKLSSVTAADTAVYYCARNYGSIYVNYFDYWGQGTLVTVSS VL: EIVLTQSPATLSLSPGERATLSCSASSSVSYMYWYQQKPGQAPRPLIYRTSNLASGIPARFSGSGSGTDFTLTISSLEPEDFAVYYCQQYHSYPTFGGGTKVEIK | 0.25 nM |
| SA301a HC-S54D (antibody, name in Kabat numbering, V domains shown, IgG1 kappa) VH: QVQLQESGPGLVKPSQTLSLTCTVSGYSITSDYNSHWIRQPPGKGLEWIGYIHYDGSTNYNPSLKSRVTISRDTSKNQFSLKLSSVTAADTAVYYCARNYGSIYVNYFDYWGQGTLVTVSS VL: EIVLTQSPATLSLSPGERATLSCSASSSVSYMYWYQQKPGQAPRPLIYRTSNLASGIPARFSGSGSGTDFTLTISSLEPEDFAVYYCQQYHSYPTFGGGTKVEIK | 0.22 nM |
| SA301a HC-S56I (antibody, name in Kabat numbering, V domains shown, IgG1 kappa) VH: QVQLQESGPGLVKPSQTLSLTCTVSGYSITSDYNSHWIRQPPGKGLEWIGYIHYSGITNYNPSLKSRVTISRDTSKNQFSLKLSSVTAADTAVYYCARNYGSIYVNYFDYWGQGTLVTVSS VL: EIVLTQSPATLSLSPGERATLSCSASSSVSYMYWYQQKPGQAPRPLIYRTSNLASGIPARFSGSGSGTDFTLTISSLEPEDFAVYYCQQYHSYPTFGGGTKVEIK | 0.48 nM |
| SA301a HC-S56L (antibody, name in Kabat numbering, V domains shown, IgG1 kappa) VH: QVQLQESGPGLVKPSQTLSLTCTVSGYSITSDYNSHWIRQPPGKGLEWIGYIHYSGLTNYNPSLKSRVTISRDTSKNQFSLKLSSVTAADTAVYYCARNYGSIYVNYFDYWGQGTLVTVSS VL: EIVLTQSPATLSLSPGERATLSCSASSSVSYMYWYQQKPGQAPRPLIYRTSNLASGIPARFSGSGSGTDFTLTISSLEPEDFAVYYCQQYHSYPTFGGGTKVEIK | 0.36 nM |
| SA301a HC-N58V (antibody, name in Kabat numbering, V domains shown, IgG1 kappa) VH: QVQLQESGPGLVKPSQTLSLTCTVSGYSITSDYNSHWIRQPPGKGLEWIGYIHYSGSTVYNPSLKSRVTISRDTSKNQFSLKLSSVTAADTAVYYCARNYGSIYVNYFDYWGQGTLVTVSS VL: EIVLTQSPATLSLSPGERATLSCSASSSVSYMYWYQQKPGQAPRPLIYRTSNLASGIPARFSGSGSGTDFTLTISSLEPEDFAVYYCQQYHSYPTFGGGTKVEIK | 0.44 nM |
| SA301a HC-S56P (antibody, name in Kabat numbering, V domains shown, IgG1 kappa) VH: QVQLQESGPGLVKPSQTLSLTCTVSGYSITSDYNSHWIRQPPGKGLEWIGYIHYSGPTNYNPSLKSRVTISRDTSKNQFSLKLSSVTAADTAVYYCARNYGSIYVNYFDYWGQGTLVTVSS VL: EIVLTQSPATLSLSPGERATLSCSASSSVSYMYWYQQKPGQAPRPLIYRTSNLASGIPARFSGSGSGTDFTLTISSLEPEDFAVYYCQQYHSYPTFGGGTKVEIK | 0.97 nM |
| SA301a HC-S56A (antibody, name in Kabat numbering, V domains shown, IgG1 kappa) VH: QVQLQESGPGLVKPSQTLSLTCTVSGYSITSDYNSHWIRQPPGKGLEWIGYIHYSGATNYNPSLKSRVTISRDTSKNQFSLKLSSVTAADTAVYYCARNYGSIYVNYFDYWGQGTLVTVSS VL: EIVLTQSPATLSLSPGERATLSCSASSSVSYMYWYQQKPGQAPRPLIYRTSNLASGIPARFSGSGSGTDFTLTISSLEPEDFAVYYCQQYHSYPTFGGGTKVEIK | 0.2 nM |
| SA301a HC-N58Y (antibody, name in Kabat numbering, V domains shown, IgG1 kappa) VH: QVQLQESGPGLVKPSQTLSLTCTVSGYSITSDYNSHWIRQPPGKGLEWIGYIHYSGSTYYNPSLKSRVTISRDTSKNQFSLKLSSVTAADTAVYYCARNYGSIYVNYFDYWGQGTLVTVSS VL: EIVLTQSPATLSLSPGERATLSCSASSSVSYMYWYQQKPGQAPRPLIYRTSNLASGIPARFSGSGSGTDFTLTISSLEPEDFAVYYCQQYHSYPTFGGGTKVEIK | 0.41 nM |
| SA301a HC-S56D (antibody, name in Kabat numbering, V domains shown, IgG1 kappa) VH: QVQLQESGPGLVKPSQTLSLTCTVSGYSITSDYNSHWIRQPPGKGLEWIGYIHYSGDTNYNPSLKSRVTISRDTSKNQFSLKLSSVTAADTAVYYCARNYGSIYVNYFDYWGQGTLVTVSS VL: EIVLTQSPATLSLSPGERATLSCSASSSVSYMYWYQQKPGQAPRPLIYRTSNLASGIPARFSGSGSGTDFTLTISSLEPEDFAVYYCQQYHSYPTFGGGTKVEIK | 0.62 nM |
| SA301a HC-S56K (antibody, name in Kabat numbering, V domains shown, IgG1 kappa) VH: QVQLQESGPGLVKPSQTLSLTCTVSGYSITSDYNSHWIRQPPGKGLEWIGYIHYSGKTNYNPSLKSRVTISRDTSKNQFSLKLSSVTAADTAVYYCARNYGSIYVNYFDYWGQGTLVTVSS VL: EIVLTQSPATLSLSPGERATLSCSASSSVSYMYWYQQKPGQAPRPLIYRTSNLASGIPARFSGSGSGTDFTLTISSLEPEDFAVYYCQQYHSYPTFGGGTKVEIK | 0.64 nM |
| SA301a HC-N58T (antibody, name in Kabat numbering, V domains shown, IgG1 kappa) VH: QVQLQESGPGLVKPSQTLSLTCTVSGYSITSDYNSHWIRQPPGKGLEWIGYIHYSGSTTYNPSLKSRVTISRDTSKNQFSLKLSSVTAADTAVYYCARNYGSIYVNYFDYWGQGTLVTVSS VL: EIVLTQSPATLSLSPGERATLSCSASSSVSYMYWYQQKPGQAPRPLIYRTSNLASGIPARFSGSGSGTDFTLTISSLEPEDFAVYYCQQYHSYPTFGGGTKVEIK | 0.47 nM |
| SA301a HC-S56H (antibody, name in Kabat numbering, V domains shown, IgG1 kappa) VH: QVQLQESGPGLVKPSQTLSLTCTVSGYSITSDYNSHWIRQPPGKGLEWIGYIHYSGHTNYNPSLKSRVTISRDTSKNQFSLKLSSVTAADTAVYYCARNYGSIYVNYFDYWGQGTLVTVSS VL: EIVLTQSPATLSLSPGERATLSCSASSSVSYMYWYQQKPGQAPRPLIYRTSNLASGIPARFSGSGSGTDFTLTISSLEPEDFAVYYCQQYHSYPTFGGGTKVEIK | 0.55 nM |
| SA301a HC-S56G (antibody, name in Kabat numbering, V domains shown, IgG1 kappa) VH: QVQLQESGPGLVKPSQTLSLTCTVSGYSITSDYNSHWIRQPPGKGLEWIGYIHYSGGTNYNPSLKSRVTISRDTSKNQFSLKLSSVTAADTAVYYCARNYGSIYVNYFDYWGQGTLVTVSS VL: EIVLTQSPATLSLSPGERATLSCSASSSVSYMYWYQQKPGQAPRPLIYRTSNLASGIPARFSGSGSGTDFTLTISSLEPEDFAVYYCQQYHSYPTFGGGTKVEIK | 0.46 nM |
| SA301a HC-S54A (antibody, name in Kabat numbering, V domains shown, IgG1 kappa) VH: QVQLQESGPGLVKPSQTLSLTCTVSGYSITSDYNSHWIRQPPGKGLEWIGYIHYAGSTNYNPSLKSRVTISRDTSKNQFSLKLSSVTAADTAVYYCARNYGSIYVNYFDYWGQGTLVTVSS VL: EIVLTQSPATLSLSPGERATLSCSASSSVSYMYWYQQKPGQAPRPLIYRTSNLASGIPARFSGSGSGTDFTLTISSLEPEDFAVYYCQQYHSYPTFGGGTKVEIK | 0.11 nM |
| SA301a HC-S56F (antibody, name in Kabat numbering, V domains shown, IgG1 kappa) VH: QVQLQESGPGLVKPSQTLSLTCTVSGYSITSDYNSHWIRQPPGKGLEWIGYIHYSGFTNYNPSLKSRVTISRDTSKNQFSLKLSSVTAADTAVYYCARNYGSIYVNYFDYWGQGTLVTVSS VL: EIVLTQSPATLSLSPGERATLSCSASSSVSYMYWYQQKPGQAPRPLIYRTSNLASGIPARFSGSGSGTDFTLTISSLEPEDFAVYYCQQYHSYPTFGGGTKVEIK | 0.7 nM |
